Patent US20250320281A1

Experiments:
Test in all cases: cell-based or functional assay
[1] = target: HIV-1 Env of isolate 92BR020 (pseudovirus) (HIV-1)
[2] = target: HIV-1 Env of isolate 94UG103 (pseudovirus) (HIV-1)
[3] = target: HIV-1 Env of isolate JR-CSF (pseudovirus) (HIV-1) (UniProt P20871)
[4] = target: HIV-1 Env of isolate MGRM-C-026 (pseudovirus) (HIV-1)
[5] = target: HIV-1 Env of isolate 92RW008 (pseudovirus) (HIV-1)
[6] = target: HIV-1 Env of isolate 92TH021 (pseudovirus) (HIV-1)
[7] = target: HIV-1 Env of isolate 92UG031 (pseudovirus) (HIV-1)
[8] = target: HIV-1 Env of isolate 92UG037 (pseudovirus) (HIV-1)
[9] = target: HIV-1 Env of isolate 92WR009 (pseudovirus) (HIV-1)
[10] = target: HIV-1 Env of isolate 92WR020 (pseudovirus) (HIV-1)
[11] = target: HIV-1 Env of isolate 92WR021 (pseudovirus) (HIV-1)
[12] = target: HIV-1 Env of isolate 92WR024 (pseudovirus) (HIV-1)
[13] = target: HIV-1 Env of isolate 92WR026 (pseudovirus) (HIV-1)
[14] = target: HIV-1 Env of isolate 93UG077 (pseudovirus) (HIV-1)
[15] = target: HIV-1 Env of isolate 93WR029 (pseudovirus) (HIV-1)
[16] = target: HIV-1 Env of isolate 94KE105 (pseudovirus) (HIV-1)
[17] = target: HIV-1 Env of isolate CMU02 (pseudovirus) (HIV-1)
[18] = target: HIV-1 Env of isolate MGRM-A-001 (pseudovirus) (HIV-1)
[19] = target: HIV-1 Env of isolate MGRM-A-002 (pseudovirus) (HIV-1)
[20] = target: HIV-1 Env of isolate MGRM-A-003 (pseudovirus) (HIV-1)
[21] = target: HIV-1 Env of isolate MGRM-A-004 (pseudovirus) (HIV-1)
[22] = target: HIV-1 Env of isolate MGRM-A-005 (pseudovirus) (HIV-1)
[23] = target: HIV-1 Env of isolate MGRM-A-006 (pseudovirus) (HIV-1)
[24] = target: HIV-1 Env of isolate MGRM-A-007 (pseudovirus) (HIV-1)
[25] = target: HIV-1 Env of isolate MGRM-A-008 (pseudovirus) (HIV-1)
[26] = target: HIV-1 Env of isolate MGRM-A-009 (pseudovirus) (HIV-1)
[27] = target: HIV-1 Env of isolate MGRM-A-010 (pseudovirus) (HIV-1)
[28] = target: HIV-1 Env of isolate MGRM-A-011 (pseudovirus) (HIV-1)
[29] = target: HIV-1 Env of isolate MGRM-A-012 (pseudovirus) (HIV-1)
[30] = target: HIV-1 Env of isolate MGRM-A-013 (pseudovirus) (HIV-1)
[31] = target: HIV-1 Env of isolate MGRM-A-014 (pseudovirus) (HIV-1)
[32] = target: HIV-1 Env of isolate MGRM-AE-001 (pseudovirus) (HIV-1)
[33] = target: HIV-1 Env of isolate MGRM-AE-002 (pseudovirus) (HIV-1)
[34] = target: HIV-1 Env of isolate MGRM-AE-003 (pseudovirus) (HIV-1)
[35] = target: HIV-1 Env of isolate VLGCA1 (pseudovirus) (HIV-1)
[36] = target: HIV-1 Env of isolate MG RM-D-011 (HIV-1)
[37] = target: HIV-1 Env of isolate MG RM-D-012 (HIV-1)
[38] = target: HIV-1 Env of isolate MG RM-D-013 (HIV-1)
[39] = target: HIV-1 Env of isolate MG RM-D-014 (HIV-1)
[40] = target: HIV-1 Env of isolate MG RM-D-016 (HIV-1)
[41] = target: HIV-1 Env of isolate MG RM-D-018 (HIV-1)
[42] = target: HIV-1 Env of isolate MG RM-D-019 (HIV-1)
[43] = target: HIV-1 Env of isolate MG RM-D-020 (HIV-1)
[44] = target: HIV-1 Env of isolate MG RM-D-021 (HIV-1)
[45] = target: HIV-1 Env of isolate MG RM-D-022 (HIV-1)
[46] = target: HIV-1 Env of isolate MG RM-D-024 (HIV-1)
[47] = target: HIV-1 Env of isolate MG RM-D-026 (HIV-1)
[48] = target: HIV-1 Env of isolate MG RM-D-028 (HIV-1)
[49] = target: HIV-1 Env of isolate MG RM-D-029 (HIV-1)
[50] = target: HIV-1 Env of isolate MGRM-Chronic-B-012 (HIV-1)
[51] = target: HIV-1 Env of isolate MGRM-F1-004 (HIV-1)
[52] = target: HIV-1 Env of isolate MGRM-F1-006 (HIV-1)
[53] = target: HIV-1 Env of isolate MGRM-F1-008 (HIV-1)
[54] = target: HIV-1 Env of isolate MGRM-F1-010 (HIV-1)
[55] = target: HIV-1 Env of isolate MGRM-F1-012 (HIV-1)
[56] = target: HIV-1 Env of isolate MGRM-F1-013 (HIV-1)
[57] = target: HIV-1 Env of isolate MGRM-F1-014 (HIV-1)
[58] = target: HIV-1 Env of isolate MGRM-F1-015 (HIV-1)
[59] = target: HIV-1 Env of isolate MGRM-F1-016 (HIV-1)
[60] = target: HIV-1 Env of isolate MGRM-F1-017 (HIV-1)
[61] = target: HIV-1 Env of isolate MGRM-F1-018 (HIV-1)
[62] = target: HIV-1 Env of isolate MGRM-F1-020 (HIV-1)
[63] = target: HIV-1 Env of isolate MGRM-F1-021 (HIV-1)
[64] = target: HIV-1 Env of isolate MGRM-F1-022 (HIV-1)
[65] = target: HIV-1 Env of isolate MGRM-F1-023 (HIV-1)
[66] = target: HIV-1 Env of pseudovirus MGRM-AE-007 (subtype AE) (HIV-1)
[67] = target: HIV-1 Env of pseudovirus MGRM-AE-008 (subtype AE) (HIV-1)
[68] = target: HIV-1 Env of pseudovirus MGRM-AG-001 (subtype AG) (HIV-1)
[69] = target: HIV-1 Env of pseudovirus MGRM-AG-002 (subtype AG) (HIV-1)
[70] = target: HIV-1 Env of pseudovirus MGRM-AG-003 (subtype AG) (HIV-1)
[71] = target: HIV-1 Env of pseudovirus MGRM-AG-005 (subtype AG) (HIV-1)
[72] = target: HIV-1 Env of pseudovirus MGRM-AG-006 (subtype AG) (HIV-1)
[73] = target: HIV-1 Env of pseudovirus MGRM-AG-008 (subtype AG) (HIV-1)
[74] = target: HIV-1 Env of pseudovirus MGRM-AG-009 (subtype AG) (HIV-1)
[75] = target: HIV-1 Env of pseudovirus MGRM-AG-011 (subtype AG) (HIV-1)
[76] = target: HIV-1 Env of pseudovirus MGRM-AG-012 (subtype AG) (HIV-1)
[77] = target: HIV-1 Env of pseudovirus MGRM-AG-013 (subtype AG) (HIV-1)

Sequence of PGT-145 (4995_P16) (antibody) (VH): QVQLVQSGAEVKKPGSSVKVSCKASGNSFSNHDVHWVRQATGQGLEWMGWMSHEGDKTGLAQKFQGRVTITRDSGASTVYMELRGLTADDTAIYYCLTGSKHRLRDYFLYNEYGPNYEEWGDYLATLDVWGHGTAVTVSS
Sequence of PGT-145 (4995_P16) (antibody) (VL): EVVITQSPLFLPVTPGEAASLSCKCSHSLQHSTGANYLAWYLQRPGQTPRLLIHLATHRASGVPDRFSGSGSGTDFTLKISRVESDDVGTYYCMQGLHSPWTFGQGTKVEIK

4873_E03 (PGT-121) (antibody)
Primary Neutralization Index (B cell culture supernatant) [1]: 3.6 | Primary Neutralization Index (B cell culture supernatant) [2]: 0.8 | Primary Neutralization Index (B cell culture supernatant) [3]: 2.2 | Primary Neutralization Index (B cell culture supernatant) [4]: 371

PGT-121 (4838_L06; 4873_E03) (antibody)
IC50 (µg/mL), pseudovirus neutralization [5]: 0.003 µg/mL | IC50 (µg/mL), pseudovirus neutralization [6]: > 50 µg/mL | IC50 (µg/mL), pseudovirus neutralization [7]: > 50 µg/mL | IC50 (µg/mL), pseudovirus neutralization [8]: 0.031 µg/mL | IC50 (µg/mL), pseudovirus neutralization [9]: 1.74 µg/mL | IC50 (µg/mL), pseudovirus neutralization [10]: 0.004 µg/mL | IC50 (µg/mL), pseudovirus neutralization [11]: 0.009 µg/mL | IC50 (µg/mL), pseudovirus neutralization [12]: > 50 µg/mL | IC50 (µg/mL), pseudovirus neutralization [13]: 0.014 µg/mL | IC50 (µg/mL), pseudovirus neutralization [14]: 0.019 µg/mL | IC50 (µg/mL), pseudovirus neutralization [15]: > 50 µg/mL | IC50 (µg/mL), pseudovirus neutralization [16]: 0.029 µg/mL | IC50 (µg/mL), pseudovirus neutralization [2]: 2.52 µg/mL | IC50 (µg/mL), pseudovirus neutralization [17]: > 50 µg/mL | IC50 (µg/mL), pseudovirus neutralization [18]: > 50 µg/mL | IC50 (µg/mL), pseudovirus neutralization [19]: 0.013 µg/mL | IC50 (µg/mL), pseudovirus neutralization [20]: 0.435 µg/mL | IC50 (µg/mL), pseudovirus neutralization [21]: > 50 µg/mL | IC50 (µg/mL), pseudovirus neutralization [22]: > 50 µg/mL | IC50 (µg/mL), pseudovirus neutralization [23]: 0.396 µg/mL | IC50 (µg/mL), pseudovirus neutralization [24]: > 50 µg/mL | IC50 (µg/mL), pseudovirus neutralization [25]: > 50 µg/mL | IC50 (µg/mL), pseudovirus neutralization [26]: 0.006 µg/mL | IC50 (µg/mL), pseudovirus neutralization [27]: 2.44 µg/mL | IC50 (µg/mL), pseudovirus neutralization [28]: > 50 µg/mL | IC50 (µg/mL), pseudovirus neutralization [29]: 0.092 µg/mL | IC50 (µg/mL), pseudovirus neutralization [30]: 0.387 µg/mL | IC50 (µg/mL), pseudovirus neutralization [31]: 0.003 µg/mL | IC50 (µg/mL), pseudovirus neutralization [32]: > 50 µg/mL | IC50 (µg/mL), pseudovirus neutralization [33]: > 50 µg/mL | IC50 (µg/mL), pseudovirus neutralization [34]: > 50 µg/mL | IC50 (µg/mL), pseudovirus neutralization [35]: > 50 µg/mL

PGT-145 (4995_P16) (antibody)
IC50 [36]: 14.7 µg/mL | IC50 [37]: > 50 µg/mL | IC50 [38]: 3.48 µg/mL | IC50 [39]: 2.51 µg/mL | IC50 [40]: > 50 µg/mL | IC50 [41]: 0.065 µg/mL | IC50 [42]: 0.111 µg/mL | IC50 [43]: 10 µg/mL | IC50 [44]: > 50 µg/mL | IC50 [45]: 34.3 µg/mL | IC50 [46]: 0.224 µg/mL | IC50 [47]: 0.41 µg/mL | IC50 [48]: 0.721 µg/mL | IC50 [49]: 0.03 µg/mL | IC50, pseudovirus neutralization [50]: 9.06 µg/mL | IC50 [51]: 0.361 µg/mL | IC50 [52]: 13.6 µg/mL | IC50 [53]: 0.228 µg/mL | IC50 [54]: 3.32 µg/mL | IC50 [55]: 0.113 µg/mL | IC50 [56]: 0.402 µg/mL | IC50 [57]: 9 ng/mL | IC50 [58]: 1.76 µg/mL | IC50 [59]: 17.5 µg/mL | IC50 [60]: 0.286 µg/mL | IC50 [61]: 1.02 µg/mL | IC50 [62]: 0.816 µg/mL | IC50 [63]: 8.04 µg/mL | IC50 [64]: 9 ng/mL | IC50 [65]: 5.88 µg/mL | IC50, pseudovirus neutralization [66]: 0.181 µg/mL | IC50, pseudovirus neutralization [67]: 1.46 µg/mL | IC50, pseudovirus neutralization [68]: 0.164 µg/mL | IC50, pseudovirus neutralization [69]: 0.056 µg/mL | IC50, pseudovirus neutralization [70]: > 50 µg/mL | IC50, pseudovirus neutralization [71]: 0.045 µg/mL | IC50, pseudovirus neutralization [72]: 6.6 µg/mL | IC50, pseudovirus neutralization [73]: 0.244 µg/mL | IC50, pseudovirus neutralization [74]: > 50 µg/mL | IC50, pseudovirus neutralization [75]: 3 ng/mL | IC50, pseudovirus neutralization [76]: > 50 µg/mL | IC50, pseudovirus neutralization [77]: 14.4 µg/mL
